Columns and labels:
Experiment in all cases: cell-based or functional assay
[1] = biological target: HIV-1 Env of isolate JRFL (HIV-1)
[2] = biological target: HIV-1 Env of isolate MGRM-G-014 (HIV-1)
[3] = biological target: HIV-1 Env of isolate MGRM-G-009 (HIV-1)
[4] = biological target: HIV-1 Env of isolate MGRM-G-013 (HIV-1)
[5] = biological target: HIV-1 Env of isolate SC422661.8 (HIV-1)
[6] = biological target: HIV-1 Env of isolate MGRM-G-001 (HIV-1)
[7] = biological target: HIV-1 Env of isolate MGRM-G-017 (HIV-1)
[8] = biological target: HIV-1 Env of isolate MGRM-Chronic-B-017 (HIV-1)
[9] = biological target: HIV-1 Env of isolate MGRM-Chronic-B-012 (HIV-1)
[10] = biological target: HIV-1 92RW020 envelope glycoprotein (Env) on pseudovirus (HIV-1)
[11] = biological target: HIV-1 Env of isolate MGRM-Chronic-B-011 (HIV-1)
[12] = biological target: HIV-1 Env of isolate MGRM-D-024 (subtype D), on pseudovirus (HIV-1)
[13] = biological target: HIV-1 Env of isolate MGRM-Chronic-B-010 (HIV-1)
[14] = biological target: HIV-1 Env of isolate MGRM-G-027 (HIV-1)
[15] = biological target: HIV-1 Env of isolate MGRM-Chronic-B-023 (HIV-1)
[16] = biological target: HIV-1 Env of isolate MGRM-G-006 (HIV-1)
[17] = biological target: HIV-1 92BR020 envelope glycoprotein (Env) on pseudovirus (HIV-1)
[18] = biological target: HIV-1 Env of isolate MGRM-Chronic-B-024 (HIV-1)
[19] = biological target: HIV-1 Env of isolate MGRM-Chronic-B-020 (HIV-1)
[20] = biological target: HIV-1 Env of isolate MGRM-G-016 (HIV-1)
[21] = biological target: HIV-1 Env of isolate MGRM-G-011 (HIV-1)
[22] = biological target: HIV-1 Env of isolate MGRM-G-015 (HIV-1)
[23] = biological target: HIV-1 Env of isolate MGRM-Chronic-B-018 (HIV-1)
[24] = biological target: HIV-1 Env of isolate MGRM-G-019 (HIV-1)
[25] = biological target: HIV-1 Env of isolate MGRM-G-004 (HIV-1)
[26] = biological target: HIV-1 JR-CSF Env D477A (HIV-1 (isolate JR-CSF)) (UniProt P20871)
[27] = biological target: aMLV envelope (negative control pseudovirus)
[28] = biological target: HIV-1 NL43 envelope glycoprotein (Env) on pseudovirus (HIV-1)
[29] = biological target: HIV-1 92TH021 envelope glycoprotein (Env) on pseudovirus (HIV-1)
[30] = biological target: HIV-1 92UG024 envelope glycoprotein (Env) on pseudovirus (HIV-1)

Substance	IC50 [1] [µg/mL]	IC50, pseudovirus neutralization [2] [µg/mL]	IC50, pseudovirus neutralization [3] [µg/mL]	IC50, pseudovirus neutralization [4] [µg/mL]	IC50 [5] [µg/mL]	IC50, pseudovirus neutralization [6] [µg/mL]	IC50, pseudovirus neutralization [7] [µg/mL]	IC50 [8] [µg/mL]	IC50 [9] [µg/mL]	IC50 [11] [µg/mL]	IC50, pseudovirus neutralization [12] [µg/mL]	IC50 [13] [µg/mL]	IC50, pseudovirus neutralization [14] [µg/mL]	IC50 [15] [µg/mL]	IC50, pseudovirus neutralization [16] [µg/mL]	IC50 [18] [µg/mL]	IC50 [19] [µg/mL]	IC50, pseudovirus neutralization [20] [µg/mL]	IC50, pseudovirus neutralization [21] [µg/mL]	IC50, pseudovirus neutralization [22] [µg/mL]	further results
5343_B08 (PGT-135) (antibody)	> 50	> 50	> 50	> 50	21.8	0.393	0.137	> 50	0.166	> 50	> 50	> 50	0.062	0.329	> 50	> 50	0.057	> 50	> 50	> 50	IC50 (ug/ml), neutralizing activity [10]: 0.157 µg/mL; IC50 (ug/ml), neutralizing activity [17]: 0.104 µg/mL; IC50 [23]: > 50 µg/mL; IC50, pseudovirus neutralization [24]: 0.145 µg/mL; IC50, pseudovirus neutralization [25]: > 50 µg/mL; Fold IC50 increase relative to wild-type [26]: 1.5 fold; IC50, pseudovirus neutralization [27]: > 50 µg/mL
5147_N06 (PGT-130) (antibody)	0.046	2.23	> 50	> 50	> 50	0.0198	> 50	> 50	0.373	0.153	> 50	0.006	4.14	> 50	> 50	5.78	0.014	> 50	> 50	> 50	IC50 (ug/ml), neutralizing activity [28]: > 10 µg/mL; IC50 (ug/ml), neutralizing activity [29]: 0.0082 µg/mL; IC50 (ug/ml), neutralizing activity [30]: > 10 µg/mL; IC50 (ug/ml), neutralizing activity [10]: 0.014 µg/mL; IC50 (ug/ml), neutralizing activity [17]: 1.12 µg/mL; IC50 [23]: 31.9 µg/mL; IC50, pseudovirus neutralization [24]: 27.9 µg/mL; IC50, pseudovirus neutralization [25]: > 50 µg/mL; Fold IC50 increase relative to wild-type [26]: 1.1 fold; IC50, pseudovirus neutralization [27]: > 50 µg/mL
5114_A19 (PGT-128) (antibody)	0.007	0.004	> 50	0.995	1.58	0.019	0.319	> 50	0.026	0.02	0.067	0.004	0.313	> 50	> 50	> 50	0.007	> 50	8.21	> 50	IC50 [23]: 0.02 µg/mL; IC50, pseudovirus neutralization [24]: 0.01 µg/mL; IC50, pseudovirus neutralization [25]: > 50 µg/mL; Fold IC50 increase relative to wild-type [26]: 0.7 fold; IC50, pseudovirus neutralization [27]: > 50 µg/mL
